# T1: GST-OsPGL1^46-604 (rice (Oryza sativa), UniProt B7EDM4)
# T1 chain: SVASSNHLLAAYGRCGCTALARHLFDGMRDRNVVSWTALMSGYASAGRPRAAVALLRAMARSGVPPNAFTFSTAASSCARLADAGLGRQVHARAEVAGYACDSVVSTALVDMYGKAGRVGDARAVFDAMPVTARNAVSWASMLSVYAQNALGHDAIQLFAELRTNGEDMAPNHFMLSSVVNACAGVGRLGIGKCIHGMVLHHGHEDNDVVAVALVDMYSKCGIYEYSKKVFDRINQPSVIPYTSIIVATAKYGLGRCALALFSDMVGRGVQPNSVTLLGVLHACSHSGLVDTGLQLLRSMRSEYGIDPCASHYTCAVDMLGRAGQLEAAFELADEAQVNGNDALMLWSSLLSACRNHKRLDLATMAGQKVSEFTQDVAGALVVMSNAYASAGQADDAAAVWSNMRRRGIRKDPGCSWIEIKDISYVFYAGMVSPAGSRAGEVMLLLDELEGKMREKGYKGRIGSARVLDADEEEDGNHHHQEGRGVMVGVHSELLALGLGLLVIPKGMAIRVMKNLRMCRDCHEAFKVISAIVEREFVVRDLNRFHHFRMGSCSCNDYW
# Target: T1, GST-OsPGL1^46-604
# Assay: GST pull-down
row,binding result,Binder
1,binds,Trx-OsMORF8-His (protein) MASASRFLLLSRLPAAAASSTSRLLRPLSAAGSLLPAALAPSAPRAAAAAARCFATQPATSSLRDSSPNWSNRPPKETILLDGCDFEHWLVVVEPPPGDPSNPEPTRDEIIDGYIKTLAQVVGSEEEARHKIYSVSTRHYFAFGALVSEELSYKLKELPKVRWVLPDSYLDVRNKDYGGEPFINGEAVPYDPKYHEEWVRNNARANERSRRNDRPRNFDRSRNFERRRENMQNFQNRDVPPGQGFNSPPPPGQGPVPPRDAPPMHHAQGNVPPPPPPNAGPPNYQPHAPNPQGYTNYQQGGAPGYQGGPPGYQGSNQGYQGPPPPPPSAYQGNNPGYQGGGPGYQGGNPPPYQGGNPGYAPGYHGQGGNPSYQQGGDNYNAGVPAYERDGQGRNYQ
2,binds,Trx-OsMORF9-His (protein) MASFPTTAAAAAAQAFAFALAPKPSSSAAAPSALFPRTAAAAAFPTLAVRGSGKARQPVVAAAAGAGTGSEQRETILLPGCDYNHWLIVMEFPKDPAPTREQMIDTYLNTLATVLGSMEEAKKNMYAFSTTTYTGFQCTVDEETSEKFKGLPGVLWVLPDSYIDVKNKDYGGDKYINGEIIPCTYPTYQPKERRTSKYESRRYERRRDGPPASRRPRPQTAQPESASSS

# — article PMC5972581 (2018)
